Laboratory results as given in paper PMC9870903, “Structural mechanism of BRD4-NUT and p300 bipartite interaction in propagating aberrant gene transcription in chromatin in NUT carcinoma” (Nature Communications, 2023).
Where two headings read alike, the source gives them in different places. Blank lines part the entries; values can stand above or below the molecule they belong to.

Assays:
[1] = molecular target: p300 TAZ2 domain (residues 1723–1812) (UniProt Q09472); test: NMR titration; 1H-15N HSQC of 15N-TAZ2 (50 μM); NUT fragment or peptide titrated from 7.8 μM to 1000 μM; 200 mM phosphate buffer pH 6.3; overlays at TAZ2/NUT molar ratio 1:3; single-site binding model
[2] = molecular target: p300 TAZ2 domain (residues 1723–1812) (UniProt Q09472); test: as above; remark: listed apart in the source
[3] = molecular target: the molecule itself; test: SEC; Superdex 200 Increase 10/300 GL in PBS, 0.3 ml/min; samples 0.8 mM; MBP-TAZ2/His-F1c in 1:1 mix ratio; calibrated with protein standards

Molecule: NUT fragment of residues 419–470 (as added in NMR) (from UniProt Q86Y26 419-470) (domain or fragment)
Kd [1]: 36 µM

Molecule: GMYPDPGLLSYINELC [F1c peptide (residues 403–418)]
Kd [2]: 115 µM

B1: His-F1c (residues 346–592) (domain or fragment, UniProt Q86Y26 346-592, looked up)
chain: RRQRKAQRPPAPEAPKEIPPEAVKEYVDIMEWLVGTHLATGESDGKQEEEGQQQEEEGMYPDPGLLSYINELCSQKVFVSKVEAVIHPQFLADLLSPEKQRDPLALIEELEQEEGLTLAQLVQKRLMALEEEEDAEAPPSFSGAQLDSSPSGSVEDEDGDGRLRPSPGLQGAGGAACLGKVSSSGKRAREVHGGQEQALDSPRGMHRDGNTLPSPSSWDLQPELAAPQGTPGPLGVERRGSGKVINQ
notes: also called free His-F1c; source: purified; not shown: His, N-terminal, kept
stoichiometry N [3]: 5

Continued, values first:

Kd [1]: 32 µM
Molecule: NUT fragment of residues 377–418 (as added in NMR) (from UniProt Q86Y26 377-418) (domain or fragment)

Kd [2]: 958 µM
Molecule: FLADLLSPEKQRDPLALIEE [F1c peptide (residues 435–454)]
